In the Human Domainome abundance scans (Beltran et al. 2025):
± gives the uncertainty stated by the source.

B1: Far upstream element-binding protein 2, residues 142 to 214; numbered along this chain, Q92945 (parent)
chain: RTSMTEEYRVPDGMVGLIIGRGGEQINKIQQDSGCKVQISPDSGGLPERSVSLTGAPESVQKAKMMLDDIVSR

Variants of: B1
Assay: abundance fitness (aPCA) (normalised: wild type 0, dead -1); higher = more abundant; growth selection in yeast, the domain comes from the species named
Conditions: Homo sapiens

With RTSLTEEYRVPDGMVGLIIGRGGEQINKIQQDSGCKVQISPDSGGLPERSVSLTGAPESVQKAKMMLDDIVSR [M4L] as the variant, how does the abundance fitness read?
The abundance fitness was -0.002 ± 0.043.

For RTSGTEEYRVPDGMVGLIIGRGGEQINKIQQDSGCKVQISPDSGGLPERSVSLTGAPESVQKAKMMLDDIVSR [M4G], which abundance fitness is on record?
The abundance fitness was -0.431 ± 0.038.

With RTSMTEEYRVPDGMVGLIIGRGGEQINKTQQDSGCKVQISPDSGGLPERSVSLTGAPESVQKAKMMLDDIVSR [I29T] as the variant, how does the abundance fitness read?
Its abundance fitness is -0.745 ± 0.065.

With RTSMTEEYRVPDGMVGLIIGRGGEQINKIQQDSGCKVQISDDSGGLPERSVSLTGAPESVQKAKMMLDDIVSR [P41D] as the variant, how does the abundance fitness read?
The abundance fitness was 0.032 ± 0.087.

Which abundance fitness does the source give for RTSMTEEYRVPDGMVGLIIGRGGEQINKIQQDSGCKVQISPDSGGLPERSVSLTGAPESVRKAKMMLDDIVSR [Q61R] here?
Its abundance fitness is 0.013 ± 0.04.

With RTSMTEEYRVPDGMVGLIIGRGGEQINKIQQDSGCKVQISPDSGGLPERSVSLTGAPESVAKAKMMLDDIVSR [Q61A] as the variant, how does the abundance fitness read?
Its abundance fitness is 0.015 ± 0.048.

With RTSMTEEYRVPDGMVGLIIGRGGEQINKIQQDSGCKVQISPDSGGLPERSVSLTGAPESVQKAKMMLDDIVSW [R73W] as the variant, how does the abundance fitness read?
The abundance fitness was -0.201 ± 0.061.

With RTSMTEEYRVPDGMVGLIIGRGGEQINKIQQDSGCKVQISPDSGGLPERSVSLTGAPESMQKAKMMLDDIVSR [V60M] as the variant, how does the abundance fitness read?
The abundance fitness was -0.265 ± 0.067.

For RTSMTEEYRVPDGMVGDIIGRGGEQINKIQQDSGCKVQISPDSGGLPERSVSLTGAPESVQKAKMMLDDIVSR [L17D], which abundance fitness is on record?
Its abundance fitness is 0.061 ± 0.064.

Which abundance fitness does the source give for RTSMTEEYRVPDGMVGSIIGRGGEQINKIQQDSGCKVQISPDSGGLPERSVSLTGAPESVQKAKMMLDDIVSR [L17S] here?
The abundance fitness was -0.021 ± 0.047.

For RTSMTEEYRVPDGMVGLIIGRGGEQINKIQQDSGCKVQINPDSGGLPERSVSLTGAPESVQKAKMMLDDIVSR [S40N], which abundance fitness is on record?
The abundance fitness was 0.097 ± 0.089.

For RTSMTEEYRVPDGMVGLIIGRGGEQINKIQQDSGCKVQIAPDSGGLPERSVSLTGAPESVQKAKMMLDDIVSR [S40A], which abundance fitness is on record?
Its abundance fitness is 0.027 ± 0.042.

With RTSMTEEYRVPDGMVGLIIGRGGEQINKIQQDPGCKVQISPDSGGLPERSVSLTGAPESVQKAKMMLDDIVSR [S33P] as the variant, how does the abundance fitness read?
Its abundance fitness is -1.01 ± 0.075.

For RTSMTEEYRVPDGMVGLIIGRGGEQINKIQQDWGCKVQISPDSGGLPERSVSLTGAPESVQKAKMMLDDIVSR [S33W], which abundance fitness is on record?
The abundance fitness was -1.09 ± 0.08.

Which abundance fitness does the source give for RTSMTEEYRVPDGMVGLIITRGGEQINKIQQDSGCKVQISPDSGGLPERSVSLTGAPESVQKAKMMLDDIVSR [G20T] here?
The abundance fitness was -0.59 ± 0.059.

With RTSMTEEYRVPDGMVGLIIMRGGEQINKIQQDSGCKVQISPDSGGLPERSVSLTGAPESVQKAKMMLDDIVSR [G20M] as the variant, how does the abundance fitness read?
The abundance fitness was -0.805 ± 0.087.

With RTSMTEEYMVPDGMVGLIIGRGGEQINKIQQDSGCKVQISPDSGGLPERSVSLTGAPESVQKAKMMLDDIVSR [R9M] as the variant, how does the abundance fitness read?
Its abundance fitness is 0.064 ± 0.058.

Which abundance fitness does the source give for RTSMTEEYGVPDGMVGLIIGRGGEQINKIQQDSGCKVQISPDSGGLPERSVSLTGAPESVQKAKMMLDDIVSR [R9G] here?
Its abundance fitness is -0.235 ± 0.035.

With RTSMTEEYRVPDGMVGLIIGRGGEQINKIQQDSGCKVQISPDSDGLPERSVSLTGAPESVQKAKMMLDDIVSR [G44D] as the variant, how does the abundance fitness read?
The abundance fitness was 0.02 ± 0.066.

Which abundance fitness does the source give for RTSMTEEYRVPDGMVGLIIGRGGEQINKIQQDSGCKVQISPDSSGLPERSVSLTGAPESVQKAKMMLDDIVSR [G44S] here?
The abundance fitness was -0.09 ± 0.047.

Which abundance fitness does the source give for RTSMTEEYRVPDGMTGLIIGRGGEQINKIQQDSGCKVQISPDSGGLPERSVSLTGAPESVQKAKMMLDDIVSR [V15T] here?
Its abundance fitness is -0.227 ± 0.059.

Which abundance fitness does the source give for RTSMTEEYRVPDGMQGLIIGRGGEQINKIQQDSGCKVQISPDSGGLPERSVSLTGAPESVQKAKMMLDDIVSR [V15Q] here?
The abundance fitness was -0.272 ± 0.06.

Which abundance fitness does the source give for RTSMTEEYRVPDGMVGLIIGRGGEQINKIQQDSGLKVQISPDSGGLPERSVSLTGAPESVQKAKMMLDDIVSR [C35L] here?
The abundance fitness was -0.787 ± 0.06.

Which abundance fitness does the source give for RTSMTEEYRVPDGMVGLIIGRGGEQINKIQQYSGCKVQISPDSGGLPERSVSLTGAPESVQKAKMMLDDIVSR [D32Y] here?
The abundance fitness was -0.167 ± 0.11.

With RTSMTEEYRVPDGMVGLIIGRGGEQINPIQQDSGCKVQISPDSGGLPERSVSLTGAPESVQKAKMMLDDIVSR [K28P] as the variant, how does the abundance fitness read?
The abundance fitness was -0.751 ± 0.069.

For RTSMTEEYRVPDGMVGLIIGRGGEQIDKIQQDSGCKVQISPDSGGLPERSVSLTGAPESVQKAKMMLDDIVSR [N27D], which abundance fitness is on record?
The abundance fitness was -0.029 ± 0.1.

For RTSMTEEYRVPDGMVGLIIGRGGEQISKIQQDSGCKVQISPDSGGLPERSVSLTGAPESVQKAKMMLDDIVSR [N27S], which abundance fitness is on record?
The abundance fitness was -0.054 ± 0.044.

For RTSMTEEYRVPDGMVGLIIGRGGEQIRKIQQDSGCKVQISPDSGGLPERSVSLTGAPESVQKAKMMLDDIVSR [N27R], which abundance fitness is on record?
Its abundance fitness is 0.017 ± 0.035.

Which abundance fitness does the source give for RTSMTEEYRVPDGMVGLIIGRGGEQINKIQQDSGCKVQISPDSGGLPERSVSLTGAPESVQKAKMMLDDIVWR [S72W] here?
The abundance fitness was -0.191 ± 0.052.

With RTSMTEEYRVPDGMVGLIIGIGGEQINKIQQDSGCKVQISPDSGGLPERSVSLTGAPESVQKAKMMLDDIVSR [R21I] as the variant, how does the abundance fitness read?
Its abundance fitness is -0.191 ± 0.06.

Which abundance fitness does the source give for RTSMTEEYRVPDGMVGLIIGRGGEQINKIQQDSGCKVQISPDSGGLPERSVSLTGAPESVQKAKMMLDFIVSR [D69F] here?
Its abundance fitness is -0.284 ± 0.092.

With RTSMTEEYRVPDGMVGLIIGRGGEYINKIQQDSGCKVQISPDSGGLPERSVSLTGAPESVQKAKMMLDDIVSR [Q25Y] as the variant, how does the abundance fitness read?
The abundance fitness was -0.06 ± 0.16.

With RTSMTEEYRVPDGMVGLIIGRGGEHINKIQQDSGCKVQISPDSGGLPERSVSLTGAPESVQKAKMMLDDIVSR [Q25H] as the variant, how does the abundance fitness read?
The abundance fitness was -0.256 ± 0.099.

For HTSMTEEYRVPDGMVGLIIGRGGEQINKIQQDSGCKVQISPDSGGLPERSVSLTGAPESVQKAKMMLDDIVSR [R1H], which abundance fitness is on record?
The abundance fitness was -0.256 ± 0.2.

With RTSMTEEYRVPDGMVGLIIGRGGEQINKIQQDSGCKVQISPDSGGLPERSCSLTGAPESVQKAKMMLDDIVSR [V51C] as the variant, how does the abundance fitness read?
The abundance fitness was -0.189 ± 0.075.

For RTSMTEEYRVPIGMVGLIIGRGGEQINKIQQDSGCKVQISPDSGGLPERSVSLTGAPESVQKAKMMLDDIVSR [D12I], which abundance fitness is on record?
Its abundance fitness is 0.041 ± 0.095.

Which abundance fitness does the source give for RTSMTEEYRVPDGMVGLNIGRGGEQINKIQQDSGCKVQISPDSGGLPERSVSLTGAPESVQKAKMMLDDIVSR [I18N] here?
Its abundance fitness is -0.345 ± 0.068.
